We go through seven molecules from US20100047245A1.

Residue numbers refer to the chain shown, from its start.

Assay [1] addresses recombinant purified human IL-12 p70 (human) (UniProt P29459). The experiment in a line: cell-based or functional assay.
Assay [2] has the same target. The experiment in a line: SPR (BIAcore) per Example 1.1.B; antigen not restated, taken as human IL-12 p70.
For assay [3] the target is unchanged. The experiment in a line: SPR (Biacore 3000), mAb captured via goat anti-mouse IgG Fc, human IL-12 p70 in solution.
Assay [4] has the same target. The assay is described as follows: SPR (Biacore) per Example 1.1.B; antigen not restated, taken as human IL-12 p70.

recombinant purified human IL-12 p70 (human), sequence (chain, as listed by the source, form in doubt, chain 1 of 2): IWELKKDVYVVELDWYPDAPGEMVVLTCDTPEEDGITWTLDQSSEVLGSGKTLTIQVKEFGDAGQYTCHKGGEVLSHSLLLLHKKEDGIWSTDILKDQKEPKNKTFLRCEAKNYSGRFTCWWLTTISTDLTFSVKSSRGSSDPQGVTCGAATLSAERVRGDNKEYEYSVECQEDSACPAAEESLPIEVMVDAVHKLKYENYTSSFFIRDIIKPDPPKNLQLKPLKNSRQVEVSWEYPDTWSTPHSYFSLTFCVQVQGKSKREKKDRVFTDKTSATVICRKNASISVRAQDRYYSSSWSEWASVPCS
recombinant purified human IL-12 p70 (human), sequence (P29459 23-219, form in doubt, chain 2 of 2): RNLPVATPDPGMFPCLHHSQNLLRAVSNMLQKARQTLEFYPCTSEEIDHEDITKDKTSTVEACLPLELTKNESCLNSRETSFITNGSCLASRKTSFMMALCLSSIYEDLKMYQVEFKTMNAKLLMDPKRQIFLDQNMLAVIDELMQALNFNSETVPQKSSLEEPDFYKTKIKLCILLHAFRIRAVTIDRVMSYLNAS

B1: 1D4.4 (antibody, human IgG1, V domains shown)
VH: EVTLRESGPALVKPTQTLTLTCTFSGFSLSKSVMGVSWIRQPPGKALEWLAHIYWDDDKYYNPSLKSRLTISKDTSKNQVVLTMTNMDPVDTATYYCARRGIRSAMDYWGQGTTVTVSS
VL: SVVMTQTPKFLLVSAGDRVTITCKASQSVSNDVAWYQQKPGQSPKLLIYYASNRYTGVPDRFTGSGYGTDFTFIISTVRAEDLAVYFCQQDYNSPWTFGGGTKLEIKR
With B1, the Av. IC50(nM) huIL-12; PHA blast IFN-gamma induction assay in assay [1] is 0.64 nM. In addition, in assay [2], the Kd turned out to be 0.074 nM, the off-rate (koff) worked out at 2.1e-05 s⁻¹ and the kon worked out at 280000 M⁻¹ s⁻¹.

B2: 5E8 (antibody, V domains shown)
VH: QIQLVQSGPELKKPGETVKISCKASGYSFTDYSMHWVKQAPGKGLKWMDWINTETGEPTYADDFKGRFAFSLETSASTAYLQINNLKNEDTATYFCSRRRYRAFDYWGQGTTLTVSS
VL: B1 VL with V2I, T7S, P40L, I74T, S76N, R79Q, N93T, W96Y, K107Q
B2: in assay [3], the Kd turned out to be 4 nM, the koff was found to be 0.0023 s⁻¹ and the association rate constant (kon) worked out at 570000 M⁻¹ s⁻¹. Also, the Average IC50 (nM) Human IL-12; PHA blast IFN-gamma induction assay in assay [1] was found to be 12 nM.

B3: 1A6.3 (antibody, human IgG1, V domains shown)
VH: EVTLKESGPVLVKPTETLTLTCTVSGFSLSTSGMGVSWIRQPPGKALEWLAHIWWDGDNYYNPSLKSRLTISKDTSKSQVVLTMTNMDPVDTATYYCARRTRVNYAMDYWGQGTTVTVSS
VL: B1 VL with Y36F, I74T, R79Q
As for B3, the Av. IC50(nM) huIL-12; PHA blast IFN-gamma induction assay in assay [1] stood at 0.068 nM. Further, in assay [2], the Kd worked out at 0.14 nM, the koff was found to be 2.6e-05 s⁻¹ and the kon was determined as 190000 M⁻¹ s⁻¹.

B4: 1D4.5 (antibody, human IgG1, V domains shown)
VH: QVTLKESGPGILQPSQTLSLTCSFSGFSLRKSVMGVSWIRQPSGKGLEWLAHIYWDDDKYYNPSLKSRLTISKDPSRNQVFLKITSVDTADAATYYCTRRGIRSAMDYWGQGTSVTVSS
VL: DIVMTQSPDSLAVSLGERATINCKASQSVSNDVAWYQQKPGQPPKLLIYYASNRYTGVPDRFSGSGSGTDFTLTISSLQAEDVAVYYCQQDYNSPWTFGGGTKVEIKR
In the case of B4, the Av. IC50(nM) huIL-12; PHA blast IFN-gamma induction assay in assay [1] is 0.053 nM. For the same molecule, in assay [2], the equilibrium dissociation constant (Kd) was found to be 0.11 nM, the koff came out at 3.1e-05 s⁻¹ and the kon was 300000 M⁻¹ s⁻¹.

B5: 1A6.10 (antibody, V domains shown)
VH: EVTLRESGPGLVKPTQTLTLTCTLYGFSLSTSGMGVSWIRQPPGKGLEWLAHIWWDGDNYYNPSLKSQLTISKDTSKNQVVLKLTSVDPVDTATYYCARRTRVNYAMDYWGQGTLVTVSS
VL: DIQMTQSPSSLSASVGDRVTITCKASQSVSNDVAWYQQKPGKAPKLLIYYASNRYTGVPDRFSGSGYGTDFTFTISSLQPEDIATYYCQQDYNSPWTFGGGTKVEIKR
For B5, in assay [4], the Kd amounted to 0.024 nM, the koff turned out to be 7.6e-06 s⁻¹ and the kon was found to be 320000 M⁻¹ s⁻¹. Moreover, the Av. IC50(nM) huIL-12; PHA blast IFN-gamma induction assay in assay [1] worked out at 0.15 nM.

B6: 1A6.12 (antibody, IgG1, V domains shown)
VH: B5 VH
VL: B5 VL with Y36F
For B6, in assay [4], the Kd amounted to 0.4 nM, the koff stood at 0.0003 s⁻¹ and the kon is 740000 M⁻¹ s⁻¹. In addition, the Av. IC50(nM) huIL-12; PHA blast IFN-gamma induction assay in assay [1] amounted to 0.088 nM.

B7: 1A6.4 (antibody, human IgG1, V domains shown)
VH: QVTLKESGPGILKPSQTLSLTCSFSGFSLSTSGMGVSWIRQPSGKGLEWLAHIWWDGDNYYNPSLKSQLTISKDTSRNQVFLRIATVDTADTATYYCARRTRVNYAMDYWGQGTSVTVSS
VL: EIVMTQSPATLSVSPGERATLSCKASQSVSNDVAWYQQKPGQAPRLLIYYASNRYTGIPARFSGSGSGTEFTLTISSLQSEDFAVYYCQQDYNSPWTFGGGTKVEIKR
B7: the Av. IC50(nM) huIL-12; PHA blast IFN-gamma induction assay in assay [1] stood at 2.1 nM. Moreover, in assay [2], the Kd was found to be 1 nM, the koff stood at 0.00011 s⁻¹ and the on-rate (kon) worked out at 110000 M⁻¹ s⁻¹.
